Source: patent US20030119038A1, “NARC1, novel subtilase-like homologs” (priority 1999, published 2003)
“Also recorded” adds a separate entry of the source. Read-outs that look alike come from different tables or passages of the source.

B1: wild-type NARC1: rat NARC1 subtilase-like protein, residues 56-746 of SEQ ID NO:3, expressed as C-terminal EGFP or myc/His fusion (protein)
chain: MGIRCSTWLRWPLSPQLLLLLLLCPTGSRAQDEDGDYEELMLALPSQEDSLVDEASHVATATFRRCSKEAWRLPGTYVVVLMEETQRLQVEQTAHRLQTWAARRGYVIKVLHVFYDLFPGFLVKMSSDLLGLALKLPHVEYIEEDSLVFAQSIPWNLERIIPAWQQTEEDSSPDGSSQVEVYLLDTSIQSGHREIEGRVTITDFNSVPEEDGTRFHRQASKCDSHGTHLAGVVSGRDAGVAKGTSLHSLRVLNCQGKGTVSGTLIGLEFIRKSQLIQPSGPLVVLLPLAGGYSRILNTACQRLARTGVVLVAAAGNFRDDACLYSPASAPEVITVGATNAQDQPVTLGTLGTNFGRCVDLFAPGKDIIGASSDCSTCYMSQSGTSQAAAHVAGIVAMMLNRDPALTLAELRQRLILFSTKDVINMAWFPEDQRVLTPNRVATLPPSTQETGGQLLCRTVWSAHSGPTRTATATARCAPEEELLSCSSFSRSGRRRGDRIEAIGGQQVCKALNAFGGEGVYAVARCCLLPRVNCSIHNTPAARAGPQTPVHCHQKDHVLTGCSFHWEVENLRAQQQPLLRSRHQPGQCVGHQEASVHASCCHAPGLECKIKEHGIAGPAEQVTVACEAGWTLTGCNVLPGASLPLGAYSVDNVCVARIRDAGRADRTSEEATVAAAICCRSRPSAKASWVHQ
modifications: C-terminal EGFP or myc/His tag; rattus norvegicus
B2: H225W, S385A: Full-length NARC1 double mutant; active site histidine and serine mutated (protein)
chain: MGIRCSTWLRWPLSPQLLLLLLLCPTGSRAQDEDGDYEELMLALPSQEDSLVDEASHVATATFRRCSKEAWRLPGTYVVVLMEETQRLQVEQTAHRLQTWAARRGYVIKVLHVFYDLFPGFLVKMSSDLLGLALKLPHVEYIEEDSLVFAQSIPWNLERIIPAWQQTEEDSSPDGSSQVEVYLLDTSIQSGHREIEGRVTITDFNSVPEEDGTRFHRQASKCDSWGTHLAGVVSGRDAGVAKGTSLHSLRVLNCQGKGTVSGTLIGLEFIRKSQLIQPSGPLVVLLPLAGGYSRILNTACQRLARTGVVLVAAAGNFRDDACLYSPASAPEVITVGATNAQDQPVTLGTLGTNFGRCVDLFAPGKDIIGASSDCSTCYMSQSGTAQAAAHVAGIVAMMLNRDPALTLAELRQRLILFSTKDVINMAWFPEDQRVLTPNRVATLPPSTQETGGQLLCRTVWSAHSGPTRTATATARCAPEEELLSCSSFSRSGRRRGDRIEAIGGQQVCKALNAFGGEGVYAVARCCLLPRVNCSIHNTPAARAGPQTPVHCHQKDHVLTGCSFHWEVENLRAQQQPLLRSRHQPGQCVGHQEASVHASCCHAPGLECKIKEHGIAGPAEQVTVACEAGWTLTGCNVLPGASLPLGAYSVDNVCVARIRDAGRADRTSEEATVAAAICCRSRPSAKASWVHQ
modifications: mutant of rat sequence mutating amino acid His225Trp and Ser385Ala of SEQ ID NO9
B3: S385A: Full-length NARC1 point mutant; mutation of the active site serine (protein)
chain: MGIRCSTWLRWPLSPQLLLLLLLCPTGSRAQDEDGDYEELMLALPSQEDSLVDEASHVATATFRRCSKEAWRLPGTYVVVLMEETQRLQVEQTAHRLQTWAARRGYVIKVLHVFYDLFPGFLVKMSSDLLGLALKLPHVEYIEEDSLVFAQSIPWNLERIIPAWQQTEEDSSPDGSSQVEVYLLDTSIQSGHREIEGRVTITDFNSVPEEDGTRFHRQASKCDSHGTHLAGVVSGRDAGVAKGTSLHSLRVLNCQGKGTVSGTLIGLEFIRKSQLIQPSGPLVVLLPLAGGYSRILNTACQRLARTGVVLVAAAGNFRDDACLYSPASAPEVITVGATNAQDQPVTLGTLGTNFGRCVDLFAPGKDIIGASSDCSTCYMSQSGTAQAAAHVAGIVAMMLNRDPALTLAELRQRLILFSTKDVINMAWFPEDQRVLTPNRVATLPPSTQETGGQLLCRTVWSAHSGPTRTATATARCAPEEELLSCSSFSRSGRRRGDRIEAIGGQQVCKALNAFGGEGVYAVARCCLLPRVNCSIHNTPAARAGPQTPVHCHQKDHVLTGCSFHWEVENLRAQQQPLLRSRHQPGQCVGHQEASVHASCCHAPGLECKIKEHGIAGPAEQVTVACEAGWTLTGCNVLPGASLPLGAYSVDNVCVARIRDAGRADRTSEEATVAAAICCRSRPSAKASWVHQ
modifications: mutant of rat sequence mutating amino acid Ser385Ala of SEQ ID NO9

Experiments:
furin [1] = target: furin (Homo sapiens, UniProt P09958); settings: cited from earlier work
Chain of furin (Homo sapiens, UniProt P09958) (P09958 108-794, species assumed): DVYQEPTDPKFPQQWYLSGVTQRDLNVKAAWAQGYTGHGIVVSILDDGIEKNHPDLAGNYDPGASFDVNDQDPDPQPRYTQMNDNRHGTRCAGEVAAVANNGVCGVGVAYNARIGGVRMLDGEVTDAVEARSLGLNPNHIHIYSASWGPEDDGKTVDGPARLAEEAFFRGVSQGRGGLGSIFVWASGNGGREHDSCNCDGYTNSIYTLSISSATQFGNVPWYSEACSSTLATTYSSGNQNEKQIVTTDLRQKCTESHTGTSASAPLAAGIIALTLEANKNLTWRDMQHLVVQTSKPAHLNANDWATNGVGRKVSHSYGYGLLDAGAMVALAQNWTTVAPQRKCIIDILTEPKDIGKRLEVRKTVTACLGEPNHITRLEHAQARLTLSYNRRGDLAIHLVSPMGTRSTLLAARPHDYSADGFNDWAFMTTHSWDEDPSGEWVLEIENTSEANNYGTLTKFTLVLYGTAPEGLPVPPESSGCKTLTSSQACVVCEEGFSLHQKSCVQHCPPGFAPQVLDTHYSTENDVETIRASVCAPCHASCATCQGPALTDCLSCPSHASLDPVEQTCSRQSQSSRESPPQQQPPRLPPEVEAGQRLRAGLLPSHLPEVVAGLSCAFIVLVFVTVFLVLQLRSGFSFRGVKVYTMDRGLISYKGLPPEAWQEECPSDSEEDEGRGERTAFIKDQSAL

Caspase 9 transfection = settings: 24-hour exposure
Text: (§1) The serine protease inhibitors Aminoethyl-benzene sulfonyl fluoride, an irreversible inhibitor (AEBSF), Aprotinin, a reversible inhibitor, and N-Tosyl-lysine-chloromethylketone (TLCK, an inhibitor known to covalently bind to serine proteases) were investigated to see if any of these reagents can rescue the cell death effects of wild-type NARC1. Caspase 9 transfection was included to test for specificity of any rescue effects.

NARC1 transfectants = system: NARC1 transfectants
Method: Following transient expression of this construct in CGNs, the percentage of GFP positive and GFP negative cells undergoing apoptosis was determined by Laser-Scanning Cytometry.
Following transient expression of the wild-type and point-mutant NARC1 constructs in CGNs, the percentage of GFP-positive cells undergoing apoptosis was determined by Laser-Scanning Cytometry.
as §1
CGNs were transfected with each of the C-terminal truncation mutants described above. Following transient expression of these constructs, the percentage of GFP positive cells undergoing apoptosis was determined by Laser-Scanning Cytometry.

furin [2] = settings: Bathurst (1987); cited from earlier work
SY5Y cells = assay: NARC1 overexpression in SY5Y cells, nuclear condensation by Hoechst assay; assay type: cell-based, human
Method: Wild-type and mutant NARC1 were overexpressed in SY5Y cells (a human neuroblastoma cell line). Nuclear condensation was assessed by Hoechst assay.

[3] = system: cerebellar granule neurons (CGNs); assay: Apoptosis after transient expression of NARC1-EGFP constructs in CGNs, Laser-Scanning Cytometry; assay type: cell-based, rat; settings: EGFP construct transiently expressed in CGNs, percentage of GFP-positive cells undergoing apoptosis
Text: Cerebellar granule neurons (CGNs) were transfected with a NARC1-enhanced green fluorescent protein (EGFP) expression construct (with the EGFP sequences located at the carboxy terminus of the fusion protein). Unless otherwise indicated, the construct utilized in the following experiments contained 2073 base pairs of the rat NARC1 transcript set forth in FIG. 5. Specifically, this corresponds to nucleotides 205-2277 and amino acid residues 56-746 of SEQ ID NO:4 and SEQ ID NO:3, respectively. The polypeptide sequence encoded by the NARC1 insert utilized herein has been set forth as SEQ ID NO:9 herein. The nucleotide sequence of this insert has been set forth as SEQ ID NO:10.
To investigate NARC1-mediated neuronal cell death, transient expression of the EGFP clones was carried out in cerebellar granule neurons (CGNs). These studies are set forth in detail as follows.

Ntera2 cells = assay: NARC1-EGFP transfection of Ntera2 cells, nuclear area condensation; assay type: cell-based, human; settings: C-terminal EGFP constructs, 24 hours
Method: Specifically, Ntera2 cells were transfected with C-terminal EGFP constructs of wild-type NARC1, each of the point-mutant NARC1s, and caspase 9. At 24 hours, nuclear area condensation was assessed for the entire Ntera2 cell population and compared to nuclear area condensation for the transfected cell population.

NARC1 [4] = assay: Autoprocessing of NARC1 transiently expressed in COS-7 cells, Western blotting; assay type: cell-based, rat; settings: for Autoprocessing Activity: C-terminal myc/His fusion transiently expressed in COS-7 cells, 60 kD processing product on Western blot
Method: The wild-type NARC1-myc/His clone was transiently expressed in COS-7 cells. The cells were then harvested, lysed, and the protein extracted. Polyacrylamide gel electrophoresis was then carried out on the protein extracts, followed by Western blotting. The resulting membranes were probed using both anti-myc- and NARC1-specific antibodies. Routine techniques and protocols were followed. See, e.g., Ausubel et al.(1998), supra.
This cleavage event maps to approximately the junction between the pro-domain and the enzymatic domain.
Autoprocessing of NARC1 was investigated as follows. COS-7 cells were co-transfected with the following EGFP and myc plasmids: (A) wild-type NARC1-myc and wild-type NARC1-EGFP; (B) S385A NARC1-myc and S385A NARC1-EGFP; and (C) wild-type NARC1-myc and S385A NARC1-myc. The cells were then harvested, lysed, and the protein extracted. Polyacrylamide gel electrophoresis was then carried out on the protein extracts, followed by Western blotting. The resulting membranes were sequentially probed using first the anti-myc and then the anti-EGFP monoclonal antibodies (Abs). Thus, the experiment allowed sequential detection of the separate NARC1 products encoded from the two co-transfected plasmids.
As indicated above, a series of C-terminal truncation mutants were generated. The truncation NARC1-myc/His clones were transiently expressed in COS-7 cells. The cells were then harvested, lysed, the protein extracted, and polyacrylamide gel electrophoresis carried out on the protein extracts. Western analysis was then carried out using both anti-myc and NARC1-specific antibodies.

NARC1 [5] = target: T1, NARC1 (Rattus norvegicus, UniProt P59996); assay: Autoprocessing of NARC1 expressed in E. coli
T1 construct: made in house; host or cells: E. coli
Method: The N-terminus of the processed protein was determined by protein microsequencing.

Molecule	Rescue of cell death in NARC1 transfectants (NARC1 transfectants; 24-hour exposure)	Resulting Cell Death Activity [3]	Sensitivity of cells to expression (nuclear area condensation) (Ntera2 cells)	Autoprocessing Activity (NARC1 [4])	other results
α1-PDX: α1-antitrypsin variant in which reactive center ALA-ILE-PRO-MET is replaced by ARG-ILE-PRO-ARG					Inhibition of cleavage of viral envelope glycoproteins, including HIV gp160 (furin [1]): inhibit the cleavage of viral envelope glycoproteins
Aminoethyl-benzene sulfonyl fluoride [AEBSF]	dose-dependent rescue of cell death				Rescue of Caspase 9-induced cell death (Caspase 9 transfection): substantial rescue; Toxicity (NARC1 transfectants; 48-hour exposure): appeared toxic
variant of α1-antitrypsin: α1-antitrypsin variant with replacement of the reactive-site MET residue by ARG; protein-based furin inhibitor					Inhibition of in vitro conversion of proalbumin (furin [2]): inhibit the in vitro conversion of proalbumin
N-Tosyl-lysine-chloromethylketone [TLCK]	some suggestion of rescue				Rescue of cell death in NARC1 transfectants (NARC1 transfectants; 48-hour exposure): increased effectiveness
Aprotinin	some suggestion of rescue				Rescue of cell death in NARC1 transfectants (NARC1 transfectants; 48-hour exposure): increased effectiveness
B1		moderately pro-apoptotic	some sensitivity	normal autoprocessing	Promotion of cell death (nuclear condensation) (SY5Y cells): does not promote cell death; Resulting Cell Death Activity ([3]; listed as NARC1-EGFP): increase in apoptosis; Intermolecular cleavage of co-expressed S385A mutant (NARC1 [4]; COS-7 cells co-transfected with wild-type and S385A NARC1 carrying different tags, anti-myc then anti-EGFP Western): absence of intermolecular cleavage; Autoprocessing (NARC1 [5]): underwent autoprocessing
B2		somewhat reduce the pro-apoptotic effect; also recorded: Reduced activity	equally sensitive	eliminate NARC1 autoprocessing; also recorded: Absence of processing	Resulting Cell Death Activity ([3]; listed as double mutant): reduced, but still substantial, pro-apoptotic effect; Autoprocessing Activity (NARC1 [4]; listed as double mutant): absence of autoprocessing
B3		reduced, but still substantial, pro-apoptotic effect; also recorded: somewhat reduce the pro-apoptotic effect; also recorded: Reduced activity	equally sensitive	absence of autoprocessing; also recorded: eliminate NARC1 autoprocessing; also recorded: Absence of processing	
